Test results from paper PMC10104896 (2023).
Where no end group is shown, it is not given here.

Tests used:
12mTau-acK280 peptide [1] = biological target: T1, 12mTau-acK280 peptide (human); test: BLI
T1 chain: VQIINK(Ac)KLDLSN

12mTau-acK280 peptide [2] = biological target: T1, 12mTau-acK280 peptide; test: BLI

B1: Y01, monoclonal anti–tau-acK280 antibody (antibody, V domains shown)
VH: QVQLQESGPGLVKPSQTLSLTCTVSGDSITSGYWNWIRQPPGKGLEYIGYIRYSGRTYYNPSLKSRVTISRDTSKNQFSLKLSSVTAADTAVYYCASVYFTYWGQGTLVTVSS
VL: DVVMTQTPLSLPVTLGQPASISCKSSQSLLDSDGKTYLNWFQQRPGQSPKRLISLVSKLDSGVPDRFSGSGSGTDFTLKISRVEAEDVGVYYCWQGSHFPYTFGQGTKLEIK
In the case of B1, the Kd (12mTau-acK280 peptide [1]) is reported as 0.257 nM and the koff (12mTau-acK280 peptide [2]) is reported as 0.000115 s⁻¹.
